The results in this text go back to patent US20230303698A1 (published 2023).

Where two headings read alike, the source gives them in different places.

The target in assay [1] is T1, cynomolgus monkey OX40-His protein (cynomolgus monkey).
T1 chain: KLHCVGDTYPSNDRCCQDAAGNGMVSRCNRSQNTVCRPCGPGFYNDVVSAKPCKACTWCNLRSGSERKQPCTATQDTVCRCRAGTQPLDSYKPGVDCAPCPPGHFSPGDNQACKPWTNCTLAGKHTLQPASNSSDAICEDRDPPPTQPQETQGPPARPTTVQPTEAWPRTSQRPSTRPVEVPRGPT
The assay is described as follows: ELISA.

Assay [2] deals with T2, human 4-1BB (human, UniProt Q07011 24-255). The assay is described as follows: FACS.
For assay [3], the target named is T3, human PSMA (human, UniProt Q04609 1-750). The assay is described as follows: FACS binding to LNCaP cells. (A flow cytometer gives signals particle by particle.)
In assay [4] the target is T3, human PSMA. Description: FACS binding to LNCaP cells. The source holds these as a separate data set.
In another assay the target is T4, human OX40 (human, UniProt P43489 29-277).
T4 chain: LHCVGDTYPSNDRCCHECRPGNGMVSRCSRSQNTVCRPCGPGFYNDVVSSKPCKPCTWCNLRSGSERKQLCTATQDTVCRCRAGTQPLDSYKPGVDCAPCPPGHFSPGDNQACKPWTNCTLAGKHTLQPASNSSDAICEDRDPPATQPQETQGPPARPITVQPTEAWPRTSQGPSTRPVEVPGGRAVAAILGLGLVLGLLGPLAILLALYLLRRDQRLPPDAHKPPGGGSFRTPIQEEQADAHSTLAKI
Description: FACS.

The target in another assay is T5, cynomolgus monkey 4-1BB (cynomolgus monkey).
T5 chain: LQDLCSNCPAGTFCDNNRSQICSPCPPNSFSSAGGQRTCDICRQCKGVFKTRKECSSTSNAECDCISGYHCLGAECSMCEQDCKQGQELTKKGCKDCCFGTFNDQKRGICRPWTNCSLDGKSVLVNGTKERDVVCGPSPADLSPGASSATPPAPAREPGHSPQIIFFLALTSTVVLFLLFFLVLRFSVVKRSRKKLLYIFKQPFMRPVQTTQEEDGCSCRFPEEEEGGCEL
The assay is described as follows: FACS.

Another assay deals with human CLDN18.2. The assay is described as follows: FACS binding to NUGC-4 cells.
Assay [5] addresses T2, human 4-1BB. Description: FACS. The source holds these as a separate data set.
For assay [6], the target named is T6, human PD-L1 (human, UniProt Q9NZQ7 19-290). Description: FACS.
Assay [7] has as its target T6, human PD-L1. The assay is described as follows: FACS binding to CHO-K1/hPD-L1 cells.

T3 sequence (Q04609 whole entry): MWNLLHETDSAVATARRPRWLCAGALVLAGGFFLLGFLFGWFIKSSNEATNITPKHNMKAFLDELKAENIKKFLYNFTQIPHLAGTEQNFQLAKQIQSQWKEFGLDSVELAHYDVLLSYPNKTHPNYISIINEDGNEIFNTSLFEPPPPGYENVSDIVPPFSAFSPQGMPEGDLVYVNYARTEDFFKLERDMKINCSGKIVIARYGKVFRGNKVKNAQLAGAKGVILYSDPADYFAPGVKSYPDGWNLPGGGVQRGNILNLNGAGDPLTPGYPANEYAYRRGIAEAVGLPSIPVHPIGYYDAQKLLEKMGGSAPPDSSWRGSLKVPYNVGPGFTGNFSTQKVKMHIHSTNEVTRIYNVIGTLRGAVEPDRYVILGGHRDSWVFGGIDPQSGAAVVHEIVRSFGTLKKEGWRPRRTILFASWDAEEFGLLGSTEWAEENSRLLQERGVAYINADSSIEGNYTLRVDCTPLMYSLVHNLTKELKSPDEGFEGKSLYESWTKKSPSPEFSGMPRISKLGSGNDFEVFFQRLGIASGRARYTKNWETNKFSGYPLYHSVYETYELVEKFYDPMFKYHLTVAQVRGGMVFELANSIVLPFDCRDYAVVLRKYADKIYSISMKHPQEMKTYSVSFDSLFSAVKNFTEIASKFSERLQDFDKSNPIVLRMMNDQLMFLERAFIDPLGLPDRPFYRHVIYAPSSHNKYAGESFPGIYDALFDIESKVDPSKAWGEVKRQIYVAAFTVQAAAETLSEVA
T6 sequence (Q9NZQ7 19-290): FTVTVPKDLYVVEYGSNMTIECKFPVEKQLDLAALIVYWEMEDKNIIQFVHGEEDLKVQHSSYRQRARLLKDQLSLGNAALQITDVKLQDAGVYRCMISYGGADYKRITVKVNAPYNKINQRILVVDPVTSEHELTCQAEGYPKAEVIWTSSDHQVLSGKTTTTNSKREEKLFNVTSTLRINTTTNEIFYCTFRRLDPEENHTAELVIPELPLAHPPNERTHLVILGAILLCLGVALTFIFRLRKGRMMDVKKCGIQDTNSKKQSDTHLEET

B1: Anti-OX40 monoclonal antibody vonlerolizumab analog (antibody, V domains shown)
VH: EVQLVQSGAEVKKPGASVKVSCKASGYTFTDSYMSWVRQAPGQGLEWIGDMYPDNGDSSYNQKFRERVTITRDTSTSTAYLELSSLRSEDTAVYYCVLAPRWYFSVWGQGTLVTVSS
VL: DIQMTQSPSSLSASVGDRVTITCRASQDISNYLNWYQQKPGKAPKLLIYYTSRLRSGVPSRFSGSGSGTDFTLTISSLQPEDFATYYCQQGHTLPPTFGQGTKVEIKR
B1: a half-maximal effect in assay [1] (EC50) was put at 0.194 nM.

B2: PR003557 (bispecific antibody)
light: DIQMTQSPSSLSASIGDRVTITCRASQSINSYLNWYQQKPGKAPKLLIYTASSLLSGVPSRFSASGSWTDFSLTISSLQPEDFATYYCQQSFSTPYTFGQGTNLEIKRTVAAPSVFIFPPSDEQLKSGTASVVCLLNNFYPREAKVQWKVDNALQSGNSQESVTEQDSKDSTYSLSSTLTLSKADYEKHKVYACEVTHQGLSSPVTKSFNRGEC
heavy: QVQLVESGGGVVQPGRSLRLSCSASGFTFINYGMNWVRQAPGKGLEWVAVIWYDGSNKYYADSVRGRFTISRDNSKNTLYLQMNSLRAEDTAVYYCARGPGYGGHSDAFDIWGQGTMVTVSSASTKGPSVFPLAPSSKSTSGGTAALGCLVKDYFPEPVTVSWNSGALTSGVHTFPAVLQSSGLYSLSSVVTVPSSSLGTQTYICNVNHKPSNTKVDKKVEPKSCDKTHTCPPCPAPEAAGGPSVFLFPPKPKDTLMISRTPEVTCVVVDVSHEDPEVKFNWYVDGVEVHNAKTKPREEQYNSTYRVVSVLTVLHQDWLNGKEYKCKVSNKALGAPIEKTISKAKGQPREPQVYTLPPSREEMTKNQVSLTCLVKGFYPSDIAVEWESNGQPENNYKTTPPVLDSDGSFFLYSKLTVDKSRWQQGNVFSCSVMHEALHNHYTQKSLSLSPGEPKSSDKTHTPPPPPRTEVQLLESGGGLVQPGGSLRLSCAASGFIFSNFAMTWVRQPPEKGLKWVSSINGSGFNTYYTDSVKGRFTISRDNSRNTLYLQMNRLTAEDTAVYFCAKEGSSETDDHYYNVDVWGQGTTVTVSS
With B2, the EC50 with human 4-1BB [2] worked out at 0.951 nM; with human PSMA [3], 0.876 nM.

B3: PR004284 (bispecific antibody)
light: DIQMTQSPSSLSASIGDRVTITCRASQSINSYLNWYQQKPGKAPKLLIYTASSLLSGVPSRFSASGSWTDFSLTISSLQPEDFATYYCQQSFSTPYTFGQGTNLEIKRTVAAPSVFIFPPSDEQLKSGTASVVCLLNNFYPREAKVQWKVDNALQSGNSQESVTEQDSKDSTYSLSSTLTLSKADYEKHKVYACEVTHQGLSSPVTKSFNRGEC
heavy: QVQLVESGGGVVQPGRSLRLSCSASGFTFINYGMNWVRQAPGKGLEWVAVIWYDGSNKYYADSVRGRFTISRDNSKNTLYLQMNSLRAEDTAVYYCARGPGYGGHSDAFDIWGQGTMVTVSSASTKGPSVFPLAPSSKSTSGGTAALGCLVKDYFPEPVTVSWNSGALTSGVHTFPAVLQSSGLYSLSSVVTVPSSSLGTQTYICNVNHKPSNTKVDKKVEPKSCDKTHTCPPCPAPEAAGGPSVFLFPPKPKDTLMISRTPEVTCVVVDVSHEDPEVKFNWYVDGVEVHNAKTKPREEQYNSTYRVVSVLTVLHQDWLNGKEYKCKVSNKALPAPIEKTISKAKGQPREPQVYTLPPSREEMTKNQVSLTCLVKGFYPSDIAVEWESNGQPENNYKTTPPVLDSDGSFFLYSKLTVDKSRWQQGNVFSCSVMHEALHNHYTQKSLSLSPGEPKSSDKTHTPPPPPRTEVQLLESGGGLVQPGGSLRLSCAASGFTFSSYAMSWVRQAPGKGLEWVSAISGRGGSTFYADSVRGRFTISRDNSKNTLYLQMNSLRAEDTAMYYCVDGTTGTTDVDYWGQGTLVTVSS
For B3, the EC50 in the assay with human PSMA [4] came to 6.7 nM; with human OX40 it was 4.96 nM.

B4: PR003556 (bispecific antibody)
light: DIQMTQSPSSLSASIGDRVTITCRASQSINSYLNWYQQKPGKAPKLLIYTASSLLSGVPSRFSASGSWTDFSLTISSLQPEDFATYYCQQSFSTPYTFGQGTNLEIKRTVAAPSVFIFPPSDEQLKSGTASVVCLLNNFYPREAKVQWKVDNALQSGNSQESVTEQDSKDSTYSLSSTLTLSKADYEKHKVYACEVTHQGLSSPVTKSFNRGEC
heavy: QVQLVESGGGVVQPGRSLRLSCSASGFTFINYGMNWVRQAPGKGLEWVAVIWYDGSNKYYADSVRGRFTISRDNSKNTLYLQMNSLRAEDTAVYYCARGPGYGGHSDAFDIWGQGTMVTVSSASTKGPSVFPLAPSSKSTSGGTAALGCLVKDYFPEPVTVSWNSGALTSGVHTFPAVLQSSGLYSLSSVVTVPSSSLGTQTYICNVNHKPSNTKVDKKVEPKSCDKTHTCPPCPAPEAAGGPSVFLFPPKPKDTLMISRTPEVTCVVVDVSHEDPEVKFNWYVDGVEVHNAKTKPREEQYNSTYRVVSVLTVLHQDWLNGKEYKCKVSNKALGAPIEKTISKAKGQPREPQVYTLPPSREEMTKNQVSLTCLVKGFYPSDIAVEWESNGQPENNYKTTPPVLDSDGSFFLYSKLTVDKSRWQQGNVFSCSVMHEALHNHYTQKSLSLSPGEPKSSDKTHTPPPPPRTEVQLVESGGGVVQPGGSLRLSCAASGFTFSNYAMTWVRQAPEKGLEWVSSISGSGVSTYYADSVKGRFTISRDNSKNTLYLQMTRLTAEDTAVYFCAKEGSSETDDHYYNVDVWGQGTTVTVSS
B4: the EC50 with human 4-1BB [2] stood at 0.476 nM; in the assay with human PSMA [3], 0.687 nM.

B5: PR003555 (bispecific antibody)
light: DIQMTQSPSSLSASIGDRVTITCRASQSINSYLNWYQQKPGKAPKLLIYTASSLLSGVPSRFSASGSWTDFSLTISSLQPEDFATYYCQQSFSTPYTFGQGTNLEIKRTVAAPSVFIFPPSDEQLKSGTASVVCLLNNFYPREAKVQWKVDNALQSGNSQESVTEQDSKDSTYSLSSTLTLSKADYEKHKVYACEVTHQGLSSPVTKSFNRGEC
heavy: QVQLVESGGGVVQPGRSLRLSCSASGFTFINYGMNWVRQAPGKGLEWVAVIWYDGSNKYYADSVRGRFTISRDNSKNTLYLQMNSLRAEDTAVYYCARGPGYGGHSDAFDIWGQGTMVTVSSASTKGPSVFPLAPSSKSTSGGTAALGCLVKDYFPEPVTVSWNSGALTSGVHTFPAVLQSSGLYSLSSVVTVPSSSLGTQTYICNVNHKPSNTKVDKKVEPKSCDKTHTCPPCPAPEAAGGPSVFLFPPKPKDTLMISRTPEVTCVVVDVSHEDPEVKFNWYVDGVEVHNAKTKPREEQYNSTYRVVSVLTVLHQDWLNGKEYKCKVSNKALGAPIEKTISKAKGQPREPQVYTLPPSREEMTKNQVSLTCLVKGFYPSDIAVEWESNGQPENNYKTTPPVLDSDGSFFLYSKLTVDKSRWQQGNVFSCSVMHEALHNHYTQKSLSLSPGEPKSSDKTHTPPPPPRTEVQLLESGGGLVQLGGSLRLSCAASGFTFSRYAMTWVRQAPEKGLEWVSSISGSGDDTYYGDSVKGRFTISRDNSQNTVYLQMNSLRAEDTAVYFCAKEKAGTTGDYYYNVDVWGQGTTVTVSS
Consider B5, for which the values for the EC50 with human 4-1BB [2] and with human PSMA [3] were 0.819 nM and 0.802 nM, respectively.

B6: PR001758, anti-4-1BB heavy-chain antibody 1016P0010B11 (antibody, V domains shown)
VH: EVQLLESGGGLVQLGGSLRLSCAASGFTFSRYAMTWVRQAPEKGLEWVSSISGSGDDTYYGDSVKGRFTISRDNSQNTVYLQMNSLRAEDTAVYFCAKEKAGTTGDYYYNVDVWGQGTTVTVSS
B6: the EC50 with cynomolgus monkey 4-1BB was found to be 0.575 nM.

B7: Anti-4-1BB monoclonal antibody utomilumab analog (antibody, V domains shown)
VH: EVQLVQSGAEVKKPGESLRISCKGSGYSFSTYWISWVRQMPGKGLEWMGKIYPGDSYTNYSPSFQGQVTISADKSISTAYLQWSSLKASDTAMYYCARGYGIFDYWGQGTLVTVSS
VL: SYELTQPPSVSVSPGQTASITCSGDNIGDQYAHWYQQKPGQSPVLVIYQDKNRPSGIPERFSGSNSGNTATLTISGTQAMDEADYYCATYTGFGSLAVFGGGTKLTVLG
In the case of B7, in the assay with cynomolgus monkey 4-1BB, the EC50 stood at 0.485 nM.

B8: PR001331, anti-PSMA monoclonal antibody 2E8A1B1 hIgG1 (antibody, V domains shown)
VH: QVQLVESGGGVVQPGRSLRLSCSASGFTFINYGMNWVRQAPGKGLEWVAVIWYDGSNKYYADSVRGRFTISRDNSKNTLYLQMNSLRAEDTAVYYCARGPGYGGHSDAFDIWGQGTMVTVSS
VL: DIQMTQSPSSLSASIGDRVTITCRASQSINSYLNWYQQKPGKAPKLLIYTASSLLSGVPSRFSASGSWTDFSLTISSLQPEDFATYYCQQSFSTPYTFGQGTNLEIKR
With B8, the EC50 with human PSMA [4] came out at 2.58 nM; with human PSMA [3], 0.702 nM.

B9: PR002726, anti-CLDN18.2 monoclonal antibody 13E6F4 hIgG1 (antibody, V domains shown)
VH: EVQLLESGGGLVQPGGSLRLSCAASGFTFSSFVMSWVRQAPGKGLEWVSTISGSGRSTYYADSVKGRFTISRDNSKNTLHLQMNSLRAEDTAVYYCAKDAAAAGTKFDYWGQGTLVTVSS
VL: EIVLTQSPATLSLSPGERATLSCRASQSVSSYLAWYQQKPGQAPRLLIYDASNRATGIPARFSGSGSGTDFTLTISSLEPEDFAVYYCQQRSNWPLTFGGGTKVEIKR
Consider B9, for which the EC50 in the assay with human CLDN18.2 was determined as 4.98 nM.

B10: PR003549 (bispecific antibody)
light: DIQMTQSPSTLSASVGDRVTVTCRASQSIYIWLAWYQQKPGKAPNLLIYKASSLETGVPSRFSGSGSGTEFTLTISSLQPDDFATYYCQQYYGSSRTFGQGTKVEIKRTVAAPSVFIFPPSDEQLKSGTASVVCLLNNFYPREAKVQWKVDNALQSGNSQESVTEQDSKDSTYSLSSTLTLSKADYEKHKVYACEVTHQGLSSPVTKSFNRGEC
heavy: EVQLVESGGGLVQPGGSLRLSCAASGFTFSSYWMSWVRQAPGKGLEWVANIKQEGSEKYYVDSVKGRFTISRDNAKNSLYLQMNSLRAEDTAVYYCARDRAVAGAFDIWGQGTMVTVSSASTKGPSVFPLAPSSKSTSGGTAALGCLVKDYFPEPVTVSWNSGALTSGVHTFPAVLQSSGLYSLSSVVTVPSSSLGTQTYICNVNHKPSNTKVDKKVEPKSCDKTHTCPPCPAPEAAGGPSVFLFPPKPKDTLMISRTPEVTCVVVDVSHEDPEVKFNWYVDGVEVHNAKTKPREEQYNSTYRVVSVLTVLHQDWLNGKEYKCKVSNKALGAPIEKTISKAKGQPREPQVYTLPPSREEMTKNQVSLTCLVKGFYPSDIAVEWESNGQPENNYKTTPPVLDSDGSFFLYSKLTVDKSRWQQGNVFSCSVMHEALHNHYTQKSLSLSPGEPKSSDKTHTPPPPPRTEVQLLESGGGLVQLGGSLRLSCAASGFTFSRYAMTWVRQAPEKGLEWVSSISGSGDDTYYGDSVKGRFTISRDNSQNTVYLQMNSLRAEDTAVYFCAKEKAGTTGDYYYNVDVWGQGTTVTVSS
With B10, the EC50 in the assay with human 4-1BB [5] amounted to 1.9 nM; with human PD-L1 [6] it was 1.56 nM.

B11: PR003789 (bispecific antibody)
light: DIQMTQSPSTLSASVGDRVTVTCRASQSIYIWLAWYQQKPGKAPNLLIYKASSLETGVPSRFSGSGSGTEFTLTISSLQPDDFATYYCQQYYGSSRTFGQGTKVEIKRTVAAPSVFIFPPSDEQLKSGTASVVCLLNNFYPREAKVQWKVDNALQSGNSQESVTEQDSKDSTYSLSSTLTLSKADYEKHKVYACEVTHQGLSSPVTKSFNRGEC
heavy: EVQLVESGGGLVQPGGSLRLSCAASGFTFSSYWMSWVRQAPGKGLEWVANIKQEGSEKYYVDSVKGRFTISRDNAKNSLYLQMNSLRAEDTAVYYCARDRAVAGAFDIWGQGTMVTVSSASTKGPSVFPLAPSSKSTSGGTAALGCLVKDYFPEPVTVSWNSGALTSGVHTFPAVLQSSGLYSLSSVVTVPSSSLGTQTYICNVNHKPSNTKVDKKVEPKSCDKTHTCPPCPAPEAAGGPSVFLFPPKPKDTLMISRTPEVTCVVVDVSHEDPEVKFNWYVDGVEVHNAKTKPREEQYNSTYRVVSVLTVLHQDWLNGKEYKCKVSNKALGAPIEKTISKAKGQPREPQVYTLPPSREEMTKNQVSLTCLVKGFYPSDIAVEWESNGQPENNYKTTPPVLDSDGSFFLYSKLTVDKSRWQQGNVFSCSVMHEALHNHYTQKSLSLSPGAEPKSSDKTHTPPPPPEVQLLESGGGLVQPGGSLRLSCAASGFTFSSYAMSWVRQAPGKGLEWVSAISGRGGSTFYADSVRGRFTISRDNSKNTLYLQMNSLRAEDTAMYYCVDGTTGTTDVDYWGQGTLVTVSS
Take B11: the 50% effective concentration (EC50) with human OX40 stood at 3.98 nM; with human PD-L1 [7], 1.37 nM.

B12: PR002067, anti-OX40 heavy-chain antibody R1026P079E12 (antibody, V domains shown)
VH: EVQLLESGGGLVQPGGSLRLSCAASGFTFSSYAMSWVRQAPGKGLEWVSAISGRGGSTFYADSVRGRFTISRDNSKNTLYLQMNSLRAEDTAMYYCVDGTTGTTDVDYWGQGTLVTVSS
For B12, the EC50 with human OX40 was found to be 17.8 nM; in assay [1], 0.232 nM.

As usually defined, the EC50 is the concentration that produces a half-maximal response.
